Data reported in paper PMC9909341, “TLQP-21 is a low potency partial C3aR activator on human primary macrophages” (Frontiers in Immunology, 2023).

T1: human C3aR (Homo sapiens, UniProt Q16581)
T1 sequence (Q16581 1-482): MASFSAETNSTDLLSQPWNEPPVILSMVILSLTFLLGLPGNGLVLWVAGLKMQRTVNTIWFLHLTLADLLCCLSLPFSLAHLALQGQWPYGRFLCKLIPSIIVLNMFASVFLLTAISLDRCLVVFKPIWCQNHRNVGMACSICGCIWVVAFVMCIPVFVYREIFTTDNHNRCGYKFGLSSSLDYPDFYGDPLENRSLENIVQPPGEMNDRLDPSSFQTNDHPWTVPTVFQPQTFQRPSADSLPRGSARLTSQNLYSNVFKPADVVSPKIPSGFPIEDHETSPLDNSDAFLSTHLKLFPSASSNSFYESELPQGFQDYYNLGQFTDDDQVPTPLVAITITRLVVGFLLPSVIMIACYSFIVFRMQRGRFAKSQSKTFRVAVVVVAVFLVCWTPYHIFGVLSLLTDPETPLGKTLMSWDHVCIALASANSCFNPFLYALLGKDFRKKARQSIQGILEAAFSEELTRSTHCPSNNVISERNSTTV

T2: Murine complement C3a receptor, endogenous on mouse bone marrow-derived macrophages (mouse (endogenous in BMDMs)) (UniProt O09047)
T2 sequence: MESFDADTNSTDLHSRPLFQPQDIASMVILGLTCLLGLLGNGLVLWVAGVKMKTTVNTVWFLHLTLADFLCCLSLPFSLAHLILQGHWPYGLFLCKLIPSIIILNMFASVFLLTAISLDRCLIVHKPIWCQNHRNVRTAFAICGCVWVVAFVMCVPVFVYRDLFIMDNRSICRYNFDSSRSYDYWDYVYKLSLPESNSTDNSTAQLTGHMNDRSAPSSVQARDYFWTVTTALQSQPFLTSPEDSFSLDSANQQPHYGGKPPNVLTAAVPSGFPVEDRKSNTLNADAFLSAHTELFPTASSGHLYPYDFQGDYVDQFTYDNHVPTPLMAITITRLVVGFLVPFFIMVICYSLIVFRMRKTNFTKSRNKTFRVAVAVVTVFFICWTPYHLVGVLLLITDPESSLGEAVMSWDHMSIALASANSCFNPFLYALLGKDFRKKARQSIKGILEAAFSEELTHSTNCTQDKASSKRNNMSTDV

T3: Human complement C3a receptor, stably expressed on CHO cells (human) (UniProt Q16581)
T3 sequence: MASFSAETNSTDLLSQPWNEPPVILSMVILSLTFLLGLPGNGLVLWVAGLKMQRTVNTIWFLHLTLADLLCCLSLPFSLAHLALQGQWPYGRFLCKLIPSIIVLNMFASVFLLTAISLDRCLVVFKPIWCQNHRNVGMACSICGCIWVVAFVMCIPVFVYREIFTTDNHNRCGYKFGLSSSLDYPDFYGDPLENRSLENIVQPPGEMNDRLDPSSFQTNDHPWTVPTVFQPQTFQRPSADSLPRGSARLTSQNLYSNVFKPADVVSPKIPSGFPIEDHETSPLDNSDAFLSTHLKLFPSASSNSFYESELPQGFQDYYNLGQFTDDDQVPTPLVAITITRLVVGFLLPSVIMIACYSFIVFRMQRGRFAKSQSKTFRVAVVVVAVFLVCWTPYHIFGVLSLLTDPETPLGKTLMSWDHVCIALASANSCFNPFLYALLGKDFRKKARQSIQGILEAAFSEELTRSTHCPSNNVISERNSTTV

T4: Human complement C3a receptor, endogenous on human monocyte-derived macrophages (human (endogenous in HMDMs)) (UniProt Q16581)
T4 sequence: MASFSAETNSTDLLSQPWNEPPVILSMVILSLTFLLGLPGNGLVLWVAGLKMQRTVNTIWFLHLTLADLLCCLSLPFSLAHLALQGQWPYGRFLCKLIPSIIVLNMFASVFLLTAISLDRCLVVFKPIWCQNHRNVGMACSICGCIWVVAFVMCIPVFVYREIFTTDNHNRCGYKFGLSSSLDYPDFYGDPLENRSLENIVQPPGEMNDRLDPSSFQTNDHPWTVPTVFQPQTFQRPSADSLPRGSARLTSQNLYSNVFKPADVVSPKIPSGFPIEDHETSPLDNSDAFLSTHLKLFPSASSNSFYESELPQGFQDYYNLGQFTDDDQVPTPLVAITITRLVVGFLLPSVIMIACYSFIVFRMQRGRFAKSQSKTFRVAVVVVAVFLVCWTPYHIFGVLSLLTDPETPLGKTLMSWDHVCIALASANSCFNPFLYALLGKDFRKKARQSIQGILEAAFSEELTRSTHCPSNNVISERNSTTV


Tests used:
BMDM (murine C3aR) = type: cell-based, mouse; settings: wild-type C57BL/6J BMDMs, 90,000/well; 10 min stimulation at RT; AlphaLISA p-ERK1/2; n = 3 mice; C3a is recombinant mouse C3a; read-out: EC50 (pERK1/2), BMDM
Description: Mouse bone marrow-derived macrophages (BMDMs) were obtained and cultured as previously described ([20], [21]). All experiments using mice were approved by the University of Queensland animal ethics committee. Wild-type and C3aR^-/- mice on a C57BL/6J genetic background (n = 3) were sacrificed by cervical dislocation. The tibia was removed and sterilised. Upon removal of both epiphyses, bone marrow cells were harvested by flushing the central cavity with complete RPMI-1640 medium using a 10 ml syringe attached to a 25-gauge needle. Cells were then cultured in complete RPMI-1640 medium (containing 10 % FBS, 100 IU/ml penicillin, 100 μg/ml streptomycin) supplemented with 100 ng/ml recombinant human macrophage colony stimulating factor on 10 mm square dishes. Mature adherent macrophages for assays were harvested on day 6-7 by gentle scraping.
(§1) Ligand-induced ERK1/2 phosphorylation was assessed using the AlphaLISA Surefire Ultra p-ERK1/2 (Thr202/Tyr204) kit (PerkinElmer, Melbourne, Australia) following the manufacturer’s protocol as previously described ([18], [20], [22]). Briefly, CHO-K1, CHO-C3aR, CHO-C5aR1, HMDMs (50,000/well) or BMDMs (90,000/well) were seeded in tissue culture-treated 96-well plates (Corning, Corning, USA) for 24 h and serum-starved overnight. All ligand dilutions were prepared in serum-free medium (SFM) containing 0.1% BSA. For inhibition assays, cells were pre-treated with the following ligands (5 µM SB290157, or respective concentrations of hC3a, mC3a, hC5a, hTLQP-21, and mTLQP-21) or the solvent-only control for 30 min before agonist (hC3a, hTLQP-21 and mTLQP-21) addition. The concentration and identity of the ligands are described in detail in the figure legends. For stimulation, cells were treated with ligands at the indicated concentrations for 10 min at RT and then immediately lysed using AlphaLISA lysis buffer on a microplate shaker (450 rpm, 10 min). For the detection of phospho-ERK1/2 content, cell lysate (5 μL/well) was transferred to a 384-well ProxiPlate (PerkinElmer, Melbourne, Australia) and added to the donor and acceptor reaction mix (2.5 μL/well, respectively), followed by a 2-h incubation at RT in the dark. On a Tecan Spark 20M (Tecan, Männedorf, Switzerland), the plate was measured using standard AlphaLISA settings.
(§2) All experiments were conducted in triplicates and repeated on three separate occasions unless otherwise specified. Data was analysed using GraphPad software (Prism 9.1). Data from each individual repeat was normalised accordingly (as specified in the figure legends) before being combined and expressed as mean ± standard error of the mean (S.E.M.) unless otherwise described. For all dose-response studies, logarithmic concentration-response curves were plotted using combined data and analysed to determine the respective potency values. Statistical analysis was performed using two-way ANOVA with Dunnett’s post hoc analysis. Donor-matched comparisons were made for HMDM experiments. Differences were deemed significant when p < 0.05.
Figure 4 TLQP-21 triggers ERK signalling through C3aR in murine bone marrow-derive macrophages. BMDMs (90,000/well) from wildtype mice (A) or with C3aR knockout mice (B), were serum-starved overnight and then stimulated with respective ligands at the indicated concentrations for 10 min. The phospho-ERK1/2 content in the cell lysate was measured and normalised to the medium only-treated levels before being combined. Data represent mean ± S.E.M. of triplicate measurements using cells from 3 mice (n = 3).

[1] = tested on: HMDM (endogenous human C3aR); type: cell-based; settings: estimated; 10 min stimulation at RT; n = 4 donors; read-out: estimated EC50 (pERK1/2), HMDM
Description: HMDMs were generated and cultured as previously described ([20]), with experiments approved by The University of Queensland Human Research Ethics Committee. Briefly, human buffy coat blood from anonymous healthy donors was obtained through the Australian Red Cross Blood Service (Brisbane, Australia). Human CD14+ monocytes were isolated from blood using Lymphoprep density centrifugation (STEMCELL, Melbourne, Australia) followed by CD14+ MACS magnetic bead separation (Miltenyi Biotec, Sydney, Australia). The isolated monocytes were differentiated for 7 days in Iscove’s Modified Dulbecco’s Medium supplemented with 10% FBS, 100 IU/ml penicillin, 100 μg/ml streptomycin and 15 ng/ml recombinant human macrophage colony stimulating factor (BioLegend, San Diego, USA) on 10 mm square dishes (Bio-strategy, Brisbane, Australia). Non-adherent cells were removed by washing with DPBS, and the adherent differentiated HMDMs were harvested by gentle scraping.
as §1, §2
Figure 3 Agonistic and antagonistic activities of hTLQP-21 and mTLQP-21 in human monocyte-derived macrophages. Serum-starved HMDMs (50,000/well) were (A) stimulated with medium or respective ligands at the indicated concentrations for 10 min and then lysed, or (B) pre-treated with 5 µM SB290157 for 30 min prior to stimulation. (C) HMDMs were pre-treated with 10 μM hTLQP-21 or mTLQP-21 for 30 min before being stimulated with respective concentrations of human C3a. (D) HMDMs were pre-treated with 10 nM hC3a, 10 μM hTLQP-21 or mTLQP-21 for 30 min before being stimulated with the same concentrations of the above ligands for 10 min and then lysed. (E) HMDMs were pre-treated with 10 μM hTLQP-21 or mTLQP-21 for 30 min before being stimulated with respective concentrations of human C5a for 10 min and then lysed. […]

human C3aR = biological target: T1, human C3aR; assay: phospho-ERK1/2 assay in CHO-C3aR cells; type: cell-based; settings: efficacy relative to hC3a; fold baseline normalised; n = 3-4
Description: Cell lines for this study were cultured as previously described ([20]). Non-transfected CHO-K1 cells or CHO cells stably expressing the human C3aR (CHO-C3aR; Product # ES-730-C, PerkinElmer, Melbourne, Australia) were maintained in Ham’s F12 medium containing 10% foetal bovine serum (FBS), 100 IU/ml penicillin and 100 μg/ml streptomycin, with additional 400 μg/ml G418 (In vivoGen, San Diego, USA) added for CHO-C3aR cell culture. HEK293 cells were maintained in DMEM medium containing 10% FBS, 100 IU/ml penicillin and 100 μg/ml streptomycin. All cell lines were maintained in T175 flasks (37°C, 5% CO2) and subcultured at 80-90% confluency using 0.05% trypsin-EDTA in DPBS.
as §1, §2
Figure 1 hTLQP-2 and mTLQP-21 activate ERK signalling in CHO-K1 and CHO-C3aR cells. hTLQP-21, mTLQP-21 and plasma-derived human C3a were tested in (A) non-transfected CHO-K1 or (B) CHO cells stably expressing human C3aR. CHO cells were serum-starved overnight and then stimulated with various ligands for 10 min before being lysed. The phospho-ERK1/2 content in the lysate was measured and expressed as fold-baseline before being combined. The maximum relative pERK1/2 activity induced by each ligand is shown in (C). Data represent mean ± S.E.M. of triplicate measurements from 3-4 independent experiments (n = 3-4). Two-way ANOVA with Dunnett’s post hoc analysis. *P < 0.05, ***P < 0.001, ****P < 0.0001. Ligand treated versus medium treated cells for each cell line.

[2] = biological target: T2, Murine complement C3a receptor, endogenous on mouse bone marrow-derived macrophages (mouse (endogenous in BMDMs))
[3] = biological target: T3, Human complement C3a receptor, stably expressed on CHO cells (human)
[4] = biological target: T4, Human complement C3a receptor, endogenous on human monocyte-derived macrophages (human (endogenous in HMDMs))
[5] = biological target: T4, Human complement C3a receptor, endogenous on human monocyte-derived macrophages (human (endogenous in HMDMs)); remark: listed apart in the source

EC50 (nM) of ERK1/2 phosphorylation in BMDMs [2] [nM]	EC50 (nM) of ERK1/2 phosphorylation in CHO-C3aR cells [3] [nM]	EC50 (nM) of ERK1/2 phosphorylation in HMDMs [4] [nM]	ERK signalling in HMDMs by 10 μM mTLQP-21 under the control conditions of Figure 3B, % of the C3a induced activity (% of the C3a induced activity) [5]	mTLQP-21 induced ERK activation in HMDMs pre-treated with the C3aR antagonist SB290157 (5 μM, 30 min), % of the control level (% of the control level) [5]	hTLQP-21 induced ERK activation in HMDMs pre-treated with the C3aR antagonist SB290157 (5 μM, 30 min), % of the control level (% of the control level) [5]	Molecule	EC50 (BMDM (murine C3aR)) [nM]	EC50 [1] [nM]	% C3a activity ± SE, CHO-C3aR (human C3aR) [%]
–	–	–	–	–	–	CC(C)C[C@H](NC(=O)[C@H](C)NC(=O)[C@H](CO)NC(=O)[C@@H]1CCCN1C(=O)[C@@H]1CCCN1C(=O)[C@H](CCC(N)=O)NC(=O)[C@H](CC(C)C)NC(=O)[C@@H](N)[C@@H](C)O)C(=O)N[C@@H](CCCNC(=N)N)C(=O)N[C@@H](CCCNC(=N)N)C(=O)N[C@@H](CCCNC(=N)N)C(=O)N[C@@H](Cc1c[nH]cn1)C(=O)N[C@@H](Cc1ccc(O)cc1)C(=O)N[C@@H](Cc1c[nH]cn1)C(=O)N[C@@H](Cc1c[nH]cn1)C(=O)N[C@@H](C)C(=O)N[C@@H](CC(C)C)C(=O)N1CCC[C@H]1C(=O)N1CCC[C@H]1C(=O)N[C@@H](CO)C(=O)N[C@@H](CCCNC(=N)N)C(=O)O [hTLQP-21]	401	14800	87.0 ± 3.5
–	–	–	–	–	–	mC3a: Recombinant mouse C3a, purchased from R&D Systems	8.4	–	–
96.5	83.6	2850	40	16	–	TLQPPASSRRRHFHHALPPAR [Mouse TLQP-21]	–	–	–
401	587	14800	–	–	29	TLQPPSALRRRHYHHALPPSR [Human TLQP-21]	–	–	–
